Eleven molecules from US20230242611A1 (YEDA RESEARCH AND DEVELOPMENT, published 2023) can be followed below.

In test [1] the target is T1, MAGE-A1 peptide on HLA-A*02:01 (human).
T1 chain: KVLEYVIKV
Put plainly: intracellular IFNγ and IL2, 6 h; transduced human PBMCs; peptide-loaded T2 cells and 721.211-A2 cells that express the antigen; full-length, on cells. To be noted: chains Valpha:Vbeta.

The target in test [2] is T2, MUC1 peptide on HLA-A*02:01 (human).
T2 peptide: LLLTVLTVV
The experiment in a line: cytokine release.

Test [3] has as its target T3, MAGE-A1 278-286 with alanine at position 1 peptide on HLA-A*02:01 (human).
T3 peptide: AVLEYVIKV
The experiment in a line: cytokine release.

The target in test [4] is T4, MAGE-A1 278-286 with alanine at position 4 peptide on HLA-A*02:01 (human).
T4 peptide: KVLAYVIKV
The experiment in a line: cytokine release.

Test [5] deals with T5, MAGE-A1 278-286 with alanine at position 8 peptide on HLA-A*02:01 (human).
T5 peptide: KVLEYVIAV
Put plainly: cytokine release.

The target in test [6] is T6, MAGE-A1 278-286 with alanine at position 7 peptide on HLA-A*02:01 (human).
T6 peptide: KVLEYVAKV
The experiment in a line: cytokine release.

Test [7] addresses T7, MAGE-A1 278-286 with alanine at position 3 peptide on HLA-A*02:01 (human).
T7 peptide: KVAEYVIKV
Put plainly: cytokine release.

Test [8] concerns the target T8, MAGE-A1 278-286 with alanine at position 9 peptide on HLA-A*02:01 (human).
T8 peptide: KVLEYVIKA
The experiment in a line: cytokine release.

Test [9] deals with T9, MAGE-A1 278-286 with alanine at position 5 peptide on HLA-A*02:01 (human).
T9 peptide: KVLEAVIKV
Put plainly: cytokine release.

For test [10], the target named is T10, MAGE-A1 278-286 with alanine at position 6 peptide on HLA-A*02:01 (human).
T10 peptide: KVLEYAIKV
The experiment in a line: cytokine release.

Test [11] deals with T11, MAGE-A1 278-286 with alanine at position 2 peptide on HLA-A*02:01 (human).
T11 peptide: KALEYVIKV
The experiment in a line: cytokine release.

For test [12], the target named is T1, MAGE-A1 peptide on HLA-A*02:01 (human). The experiment in a line: intracellular IFNγ; transduced human PBMCs (donor I); peptide titration on T2 cells; unit not printed for m2 (the others in pM); minimal activity not reached; full-length, on cells. Conditions: chains Valpha:Vbeta.
Test [13] deals with T12, MAGE-A1 peptide on HLA-A*02:01 (human).
T12 peptide: KVLEYVIKV
Put plainly: multimer staining.

Test [14] has as its target T2, MUC1 peptide on HLA-A*02:01. Put plainly: killing.
Test [15] addresses MAGE-A1278-286 peptide presented on HLA-A2 on cells (peptide-loaded T2 cells; 721.211-A2 MAGE-A1+ cells) (human). The experiment in a line: cell-based or functional assay.

Changes are numbered by the printed parent chain. Numbers in names are those of the source.

B1: hT27 TCR m2 (beta chain S109N) (TCR, V domains shown)
Valpha: GEDVEQSLFLSVREGDSSVINCTYTDSSSTYLYWYKQEPGAGLQLLTYIFSNMDMKQDQRLTVLLNKKDKHLSLRIADTQTGDSAIYFCAGSGGGTDKLIFGTGTRLQVFP
Vbeta: GAVVSQHPSWVICKSGTSVKIECRSLDFQATTMFWYRQFPKQSLMLMATSNEGSKATYEQGVEKDKFLINHASLTLSTLTVTSAHPEDSSFYICNAREPGQGPYEQYFGPGTRLTVT
Turning to B1, the percent IFNγ+ cells towards 721.211-A2 cells in test [1] turned out to be 49.7%. In addition, the binding result in test [2], in test [3], in test [4], in test [5], in [6] and in test [7] was “recognises” throughout. Besides, the binding result in [8], in test [9], in [10] and in test [11] was “recognises” each time. The EC50 of peptide in [12] came out at 0.289.

B2: hT27 TCR m3 (beta chain T63I) (TCR, V domains shown)
Valpha: B1 Valpha
Vbeta: B1 Vbeta with T49I, N95S
Turning to B2, the binding result in test [3], in [5], in test [6], in test [8], in test [10] and in test [11] was “recognises” throughout. The binding result is “recognises” in test [13] and “no recognition” in test [14].

B3: hT27 TCR (TCR, V domains shown)
Valpha: B1 Valpha
Vbeta: B1 Vbeta with N95S
In the case of B3, the binding result is reported as “recognises” in test [3]; “no recognition” in test [4]; “no recognition” in [5]; “no recognition” in test [7]; “recognises” in [8]; “no recognition” in test [9]. Besides, the binding result in [10] and in test [14] was “no recognition” each time.

B4: hT27 TCR m7 (alpha chain G125A) (TCR, V domains shown)
Valpha: B1 Valpha with G104A
Vbeta: B1 Vbeta with N95S
In the case of B4, the binding result in test [13] is reported as “recognises”.

B5: hT27 TCR with beta chain S32T and S109N mutations (TCR, V domains shown)
Valpha: B1 Valpha
Vbeta: B1 Vbeta with S18T
On to B5, for which the binding result in test [13] is “recognises”.

B6: hT27 TCR m8 (alpha chain G125V) (TCR, V domains shown)
Valpha: B1 Valpha with G104V
Vbeta: B1 Vbeta with N95S
With B6, the binding result in test [3], in test [5], in test [6], in [8], in test [10] and in [11] was “recognises” each time. Further, the binding result in [13] was “recognises”; in test [14] it was “no recognition”.

B7: wild type (WT) hT27 TCR, MAGE-A1 specific (TCR)
TCR alpha: RGEDVEQSLFLSVREGDSSVINCTYTDSSSTYLYWYKQEPGAGLQLLTYIFSNMDMKQDQRLTVLLNKKDKHLSLRIADTQTGDSAIYFCAGSGGGTDKLIFGTGTRLQVFPNIQNPEPAVYQLKDPRSQDSTLCLFTDFDSQINVPKTMESGTFITDKTVLDMKAMDSKSNGAIAWSNQTSFTCQDIFKETNATYPSSDVPCDATLTEKSFETDMNLNFQNLSVMGLRILLLKVAGFNLLMTLRLWSS
TCR beta: AVVSQHPSWVICKSGTSVKIECRSLDFQATTMFWYRQFPKQSLMLMATSNEGSKATYEQGVEKDKFLINHASLTLSTLTVTSAHPEDSSFYICSAREPGQGPYEQYFGPGTRLTVTEDLRNVTPPKVSLFEPSKAEIANKQKATLVCLARGFFPDHVELSWWVNGKEVHSGVSTDPQAYKESNYSYCLSSRLRVSATFWHNPRNHFRCQVQFHGLSEEDKWPEGSPKPVTQNISAEAWGRADCGITSASYHQGVLSATILYEILLGKATLYAVLVSGLVLMAMVKKKNS
Take B7: in test [15], the “% IFNγ+ cells after co-culture with 721.211-A2 cells” value (from here on “% IFNγ+ cells after co-culture”) worked out at 3.3 % IFNγ+ and the “EC50 of IFNγ production (peptide concentration), T2 cells loaded with MAGE-A1 peptide” value (“EC50 of IFNγ production … with MAGE-A1 peptide” for short) was 3540 pM.

B8: hT27 TCR comprising S109N mutation in the beta chain (m2) (TCR, V domains shown)
V domain 1: RGEDVEQSLFLSVREGDSSVINCTYTDSSSTYLYWYKQEPGAGLQLLTYIFSNMDMKQDQRLTVLLNKKDKHLSLRIADTQTGDSAIYFCAGSGGGTDKLIFGTGTRLQVFP
V domain 2: AVVSQHPSWVICKSGTSVKIECRSLDFQATTMFWYRQFPKQSLMLMATSNEGSKATYEQGVEKDKFLINHASLTLSTLTVTSAHPEDSSFYICNAREPGQGPYEQYFGPGTRLTVTE
Regarding B8, in [15], the “% IFNγ+ cells after co-culture” value is 49.7 % IFNγ+, the “EC50 of IFNγ production against WT hT27” value was ~4 orders of magnitude lower than WT hT27 TCR and the “EC50 of IL2 production against WT hT27” value was ~3 orders of magnitude lower than WT hT27 TCR.

B9: hT27 TCR comprising T63I mutation in the beta chain (m3) (TCR, V domains shown)
V domain 1: B8 V domain 1
V domain 2: B8 V domain 2 with T48I, N94S
As to B9, in test [15], the “% IFNγ+ cells after co-culture” value is 6.9 % IFNγ+; the “EC50 of IFNγ production … with MAGE-A1 peptide” value turned out to be 0.352 pM; the “EC50 of IFNγ production against WT hT27” value was ~4 orders of magnitude lower than WT hT27 TCR; the “EC50 of IL2 production against WT hT27” value is ~3 orders of magnitude lower than WT hT27 TCR.

B10: hT27 TCR comprising G125V mutation in the alpha chain (m8) (TCR)
TCR alpha: B7 TCR alpha with G105V
TCR beta: B7 TCR beta
For B10, in test [15], the “% IFNγ+ cells after co-culture” value came to 3.8 % IFNγ+; the “EC50 of IFNγ production … with MAGE-A1 peptide” value worked out at 0.982 pM; the “EC50 of IFNγ production against WT hT27” value was ~4 orders of magnitude lower than WT hT27 TCR; the “EC50 of IL2 production against WT hT27” value is ~3 orders of magnitude lower than WT hT27 TCR.

B11: hT27 TCR comprising W55L+Y56F mutations in the alpha chain (m9) (TCR, V domains shown)
V domain 1: EDVEQSLFLSVREGDSSVINCTYTDSSSTYLYLFKQEPGAGLQLLTYIFSNMDMKQDQRLTVLLNKKDKHLSLRIADTQTGDSAIYFCAGSGGGTDKLIFGTGTRLQVFP
V domain 2: B8 V domain 2 with N94S
For the molecule B11, in [15], the “% IFNγ+ cells after co-culture” value was found to be 5.4 % IFNγ+; the “EC50 of IFNγ production … with MAGE-A1 peptide” value came to 0.275 pM; the “EC50 of IFNγ production against WT hT27” value is ~4 orders of magnitude lower than WT hT27 TCR; the “EC50 of IL2 production against WT hT27” value was ~3 orders of magnitude lower than WT hT27 TCR.
